# Target: T1, HFR1^n-131aa-TBPm3 conjugated protein (UniProt Q9FE22)
# T1 sequence: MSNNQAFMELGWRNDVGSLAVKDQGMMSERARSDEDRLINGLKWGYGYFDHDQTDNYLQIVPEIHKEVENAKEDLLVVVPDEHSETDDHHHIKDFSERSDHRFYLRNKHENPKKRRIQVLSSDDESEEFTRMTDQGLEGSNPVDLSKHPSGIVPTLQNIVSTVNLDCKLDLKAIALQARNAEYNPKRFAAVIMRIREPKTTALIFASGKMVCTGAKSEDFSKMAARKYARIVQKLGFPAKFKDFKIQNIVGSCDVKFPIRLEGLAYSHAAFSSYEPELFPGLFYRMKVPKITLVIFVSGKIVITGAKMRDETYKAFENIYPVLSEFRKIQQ
substance,measurement,value
COP1^L105A (Constitutive photomorphogenic1 with amino acid mutation Leu to Ala),"Histochemical GUS staining of post-meiotic anther tapetum, ES transgenic versus F1 [ES x RS]",no staining was appear in the F1 tapetum of the same anther stage
same,Relative expression of BECLIN1 transcript (qRT-PCR) in anther developmental stages of F1 [MS x RS],"When expression of BECLIN1 was checked in different anther developmental stages, it was found that their expression was abolished"
